# Publication PMC11059001 (2024)
# B1: TsCRT^Δ mutant Y132A/N158A (domain or fragment)
# chain: EPTIYLKETFDDGDAWKERWVQSKHKDDYGEWQLSHGKLFADENDMGLKTMQDARFYSLSRKFDKVVDNKDKPLVIVYTVKHEQDIDCGGGYIKLMLENTDLEDFNSDTPARIMFGPDICGPEKRAVHSILWHDGKAYEKRKNAIAMADIFTHAYKLIIFPNNSYEIWVNNDKEAYGRLEDDWTMTEPGSGPVPELYRYKGLGAIGFELWQVKSGTIFDNILITDDPEYAKEFIDKQLEALRPIEKVESDK
# modifications: fluorescent label RED-NHS (MO-L011 Monolith Protein Labelling Kit) in the MST assays; chain labelled not stated | fluorescent label RED-NHS (MO-L011 Monolith Protein Labelling Kit) in the MST assays; chain labelled not stated | fluorescent label RED-NHS (MO-L011 Monolith Protein Labelling Kit) in the MST assays; chain labelled not stated
# Molecular target: complement C1q (human, UniProt P02745;P02746;P02747)
# Sequence (P02745 23-245, chain 1 of 3): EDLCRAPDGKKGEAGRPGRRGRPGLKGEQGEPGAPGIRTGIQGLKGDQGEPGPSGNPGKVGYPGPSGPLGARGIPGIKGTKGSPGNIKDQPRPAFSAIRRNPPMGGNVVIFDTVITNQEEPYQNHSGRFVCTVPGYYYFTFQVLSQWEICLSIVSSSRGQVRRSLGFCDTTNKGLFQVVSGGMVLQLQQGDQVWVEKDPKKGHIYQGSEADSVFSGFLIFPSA
# Sequence (P02746 28-253, chain 2 of 3): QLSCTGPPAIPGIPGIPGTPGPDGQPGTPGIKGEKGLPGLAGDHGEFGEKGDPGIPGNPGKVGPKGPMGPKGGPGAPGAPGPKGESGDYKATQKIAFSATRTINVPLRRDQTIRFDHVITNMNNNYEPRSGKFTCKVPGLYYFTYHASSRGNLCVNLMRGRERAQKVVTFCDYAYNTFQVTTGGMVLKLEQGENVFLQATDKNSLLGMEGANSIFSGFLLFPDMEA
# Sequence (P02747 29-245, chain 3 of 3): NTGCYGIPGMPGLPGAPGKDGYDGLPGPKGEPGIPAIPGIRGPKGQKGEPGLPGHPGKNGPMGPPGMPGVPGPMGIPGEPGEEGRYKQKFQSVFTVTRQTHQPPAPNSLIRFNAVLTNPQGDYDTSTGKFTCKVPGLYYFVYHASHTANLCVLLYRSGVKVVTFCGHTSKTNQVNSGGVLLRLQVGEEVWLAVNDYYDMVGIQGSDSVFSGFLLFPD
# Assay: MST
binder,measurement,value
B1,Kd,8.89 µM
